The results in this text go back to the supplement of paper PMC5998384.

The test system of series [1] is HeLa Kyoto. The series is described as follows: solubility in G1/S (NP-40 vs SDS abundance) (log2 ratio); higher = more soluble. The conditions noted are these: cell cycle stage: G1/S.
The test system of series [2] is HeLa Kyoto. The series is described as follows: solubility change mitosis vs G1/S (difference of NP-40 vs SDS log2 ratios) (log2 ratio difference); higher = more soluble in mitosis.
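Wherever solubility change mitosis vs G1/S (difference of NP-40 vs SDS log2 ratios) is given: synchronized HeLa Kyoto cells (double thymidine block for G1/S, nocodazole release for mitosis), protein amounts in NP-40 versus SDS lysates quantified by mass spectrometry, three biological replicates.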
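Wherever solubility in G1/S (NP-40 vs SDS abundance) is given: HeLa Kyoto cells arrested at G1/S by double thymidine block, proteins quantified by TMT10plex mass spectrometry in mild NP-40 versus SDS extracts, three biological replicates.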

Regarding “MSAQTSPAEKGLNPGLMCQESYACSGTDEAIFECDECCSLQCLRCEEELHRQERLRNHERIRLKPGHVPYCDLCKGLSGHLPGVRQRAIVRCQTCKINLCLECQKRTHSGGNKRRHPVTVYNVSNLQESLEAEEMDEETKRKKMTEKVVSFLLVDENEEIQVTNEEDFIRKLDCKPDQHLKVVSIFGNTGDGKSHTLNHTFFYGREVFKTSPTQESCTVGVWAAYDPVHKVAVIDTEGLLGATVNLSQRTRLLLKVLAISDLVIYRTHADRLHNDLFKFLGDASEAYLKHFTKELKATTARCGLDVPLSTLGPAVIIFHETVHTQLLGSDHPSEVPEKLIQDRFRKLGRFPEAFSSIHYKGTRTYNPPTDFSGLRRALEQLLENNTTRSPRHPGVIFKALKALSDRFSGEIPDDQMAHSSFFPDEYFTCSSLCLSCGVGCKKSMNHGKEGVPHEAKSRCRYSHQYDNRVYTCKACYERGEEVSVVPKTSASTDSPWMGLAKYAWSGYVIECPNCGVVYRSRQYWFGNQDPVDTVVRTEIVHVWPGTDGFLKDNNNAAQRLLDGMNFMAQSVSELSLGPTKAVTSWLTDQIAPAYWRPNSQILSCNKCATSFKDNDTKHHCRACGEGFCDSCSSKTRPVPERGWGPAPVRVCDNCYEARNVQLAVTEAQVDDEGGTLIARKVGEAVQNTLGAVVTAIDIPLGLVKDAARPAYWVPDHEILHCHNCRKEFSIKLSKHHCRACGQGFCDECSHDRRAVPSRGWDHPVRVCFNCNKKPGDL [ZFYVE1]”, the “solubility in G1/S (log2)” value in series [1] was -0.282. For the same sequence, the “solubility change mitosis (log2)” value in series [2] was -0.0704.

Consider “MSELSDEASEPELLNRSLSMWHGLGTQVSGEELDVPLDLHTAASIGQYEVVKECVQRRELDLNKKNGGGWTPLMYASYIGHDTIVHLLLEAGVSVNVPTPEGQTPLMLASSCGNESIAYFLLQQGAELEMKDIQGWTALFHCTSAGHQHMVRFLLDSGANANVREPICGFTPLMEAAAAGHEIIVQYFLNHGVKVDARDHSGATARMLAKQYGHMKIVALMDTYSPSLPKSLYRSPEKYEDLSSSDESCPAPQRQRPCRKKGVSIHEGPRALARITGIGLGGRAPRPRYEQAPPRGYVTFNSSGENPLEEEGLCCRDVTSPINERDVESSSSSSSREEHAFCANLGPVQSSSSSEGLARAQGLSSEASVESNEDSDHACKSSARKQAKSYMKTKNPDSQWPPRAATDREGFLAESSPQTQRAPYSGPQDLAALLEQIGCLKYLQVFEEQDVDLRIFLTLTESDLKEIGITLFGPKRKMTSAIARWHSSARPPGDALELAYADRLEAEMQELAIQLHKRCEEVEATRGQVCQEQELRAVVESCLLEQDRAREDLQARLRETWALARDAALVLDQLRACQAELSSRVRQDQPPGAATLGLAVPPADSKGWQASLQAMSLPELSGALEDRVREMGQALCLVTQSLEKLQVLNGKKWRET [ANKS3]”, for which the “solubility in G1/S (log2)” value in series [1] was -0.0739. The “solubility change mitosis (log2)” value in series [2] amounted to 0.0304.

Regarding “MSENNKNSLESSLRQLKCHFTWNLMEGENSLDDFEDKVFYRTEFQNREFKATMCNLLAYLKHLKGQNEAALECLRKAEELIQQEHADQAEIRSLVTWGNYAWVYYHMGRLSDVQIYVDKVKHVCEKFSSPYRIESPELDCEEGWTRLKCGGNQNERAKVCFEKALEKKPKNPEFTSGLAIASYRLDNWPPSQNAIDPLRQAIRLNPDNQYLKVLLALKLHKMREEGEEEGEGEKLVEEALEKAPGVTDVLRSAAKFYRRKDEPDKAIELLKKALEYIPNNAYLHCQIGCCYRAKVFQVMNLRENGMYGKRKLLELIGHAVAHLKKADEANDNLFRVCSILASLHALADQYEDAEYYFQKEFSKELTPVAKQLLHLRYGNFQLYQMKCEDKAIHHFIEGVKINQKSREKEKMKDKLQKIAKMRLSKNGADSEALHVLAFLQELNEKMQQADEDSERGLESGSLIPSASSWNGE [IFIT2]”, in series [1], the “solubility in G1/S (log2)” value came out at 0.432. Further, the “solubility change mitosis (log2)” value in series [2] was -0.2.

Turning to “MSETDHIASTSSDKNVGKTPELKEDSCNLFSGNESSKLENESKLLSLNTDKTLCQPNEHNNRIEAQENYIPDHGGGEDSCAKTDTGSENSEQIANFPSGNFAKHISKTNETEQKVTQILVELRSSTFPESANEKTYSESPYDTDCTKKFISKIKSVSASEDLLEEIESELLSTEFAEHRVPNGMNKGEHALVLFEKCVQDKYLQQEHIIKKLIKENKKHQELFVDICSEKDNLREELKKRTETEKQHMNTIKQLESRIEELNKEVKASRDQLIAQDVTAKNAVQQLHKEMAQRMEQANKKCEEARQEKEAMVMKYVRGEKESLDLRKEKETLEKKLRDANKELEKNTNKIKQLSQEKGRLHQLYETKEGETTRLIREIDKLKEDINSHVIKVKWAQNKLKAEMDSHKETKDKLKETTTKLTQAKEEADQIRKNCQDMIKTYQESEEIKSNELDAKLRVTKGELEKQMQEKSDQLEMHHAKIKELEDLKRTFKEGMDELRTLRTKVKCLEDERLRTEDELSKYKEIINRQKAEIQNLLDKVKTADQLQEQLQRGKQEIENLKEEVESLNSLINDLQKDIEGSRKRESELLLFTERLTSKNAQLQSESNSLQSQFDKVSCSESQLQSQCEQMKQTNINLESRLLKEEELRKEEVQTLQAELACRQTEVKALSTQVEELKDELVTQRRKHASSIKDLTKQLQQARRKLDQVESGSYDKEVSSMGSRSSSSGSLNARSSAEDRSPENTGSSVAVDNFPQVDKAMLIERIVRLQKAHARKNEKIEFMEDHIKQLVEEIRKKTKIIQSYILREESGTLSSEASDFNKVHLSRRGGIMASLYTSHPADNGLTLELSLEINRKLQAVLEDTLLKNITLKENLQTLGTEIERLIKHQHELEQRTKKT [CCDC186]”, in series [1], the “solubility in G1/S (log2)” value is 0.232. Also, in series [2], the “solubility change mitosis (log2)” value was determined as 0.000436.

For “MSEVLPADSGVDTLAVFMASSGTTDVTNRNSPATPPNTLNLRSSHNELLNAEIKHTETKNSTPPKCRKKYALTNIQAAMGLSDPAAQPLLGNGSANIKLVKNGENQLRKAAEQGQQDPNKNLSPTAVINITSEKLEGKEPHPQDSSSCEILPSQPRRTKSFLNYYADLETSARELEQNRGNHHGTAEEKSQPVQGQASTIIGNGDLLLQKPNRPQSSPEDGQVATVSSSPETKKDHPKTGAKTDCALHRIQNLAPSDEESSWTTLSQDSASPSSPDETDIWSDHSFQTDPDLPPGWKRVSDIAGTYYWHIPTGTTQWERPVSIPADLQGSRKGSLSSVTPSPTPENEKQPWSDFAVLNGGKINSDIWKDLHAATVNPDPSLKEFEGATLRYASLKLRNAPHPDDDDSCSINSDPEAKCFAVRSLGWVEMAEEDLAPGKSSVAVNNCIRQLSYCKNDIRDTVGIWGEGKDMYLILENDMLSLVDPMDRSVLHSQPIVSIRVWGVGRDNGRDFAYVARDKDTRILKCHVFRCDTPAKAIATSLHEICSKIMAERKNAKALACSSLQERANVNLDVPLQVDFPTPKTELVQKFHVQYLGMLPVDKPVGMDILNSAIENLMTSSNKEDWLSVNMNVADATVTVISEKNEEEVLVECRVRFLSFMGVGKDVHTFAFIMDTGNQRFECHVFWCEPNAGNVSEAVQAACMLRYQKCLVARPPSQKVRPPPPPADSVTRRVTTNVKRGVLSLIDTLKQKRPVTEMP [APBB2]”, in series [1], the “solubility in G1/S (log2)” value is 0.0839. Besides, in series [2], the “solubility change mitosis (log2)” value is -0.0698.

With “MSFLIDSSIMITSQILFFGFGWLFFMRQLFKDYEIRQYVVQVIFSVTFAFSCTMFELIIFEILGVLNSSSRYFHWKMNLCVILLILVFMVPFYIGYFIVSNIRLLHKQRLLFSCLLWLTFMYFFWKLGDPFPILSPKHGILSIEQLISRVGVIGVTLMALLSGFGAVNCPYTYMSYFLRNVTDTDILALERRLLQTMDMIISKKKRMAMARRTMFQKGEVHNKPSGFWGMIKSVTTSASGSENLTLIQQEVDALEELSRQLFLETADLYATKERIEYSKTFKGKYFNFLGYFFSIYCVWKIFMATINIVFDRVGKTDPVTRGIEITVNYLGIQFDVKFWSQHISFILVGIIIVTSIRGLLITLTKFFYAISSSKSSNVIVLLLAQIMGMYFVSSVLLIRMSMPLEYRTIITEVLGELQFNFYHRWFDVIFLVSALSSILFLYLAHKQAPEKQMAP [GPR89B]”, the “solubility in G1/S (log2)” value in series [1] is -0.0559. Also, in series [2], the “solubility change mitosis (log2)” value was -0.167.

In the case of “MSHGPKQPGAAAAPAGGKAPGQHGGFVVTVKQERGEGPRAGEKGSHEEEPVKKRGWPKGKKRKKILPNGPKAPVTGYVRFLNERREQIRTRHPDLPFPEITKMLGAEWSKLQPTEKQRYLDEAEREKQQYMKELRAYQQSEAYKMCTEKIQEKKIKKEDSSSGLMNTLLNGHKGGDCDGFSTFDVPIFTEEFLDQNKAREAELRRLRKMNVAFEEQNAVLQRHTQSMSSARERLEQELALEERRTLALQQQLQAVRQALTASFASLPVPGTGETPTLGTLDFYMARLHGAIERDPAQHEKLIVRIKEILAQVASEHL [HMG20B]”, in series [1], the “solubility in G1/S (log2)” value was 0.616. In series [2], the “solubility change mitosis (log2)” value is -0.0403.
